Results: patent US20100298541A1 (published 2010)

B1: 2F4 (designed binder)
chain: IEVKDVTDTTALITWSPCIMVCLRTGCELTYGIKDVPGDRTTIDLTEDENQYSIGNLKPDTEYEVSLICRRGDMSGAPAKETFTT
B2: 5B10 (designed binder)
chain: IEVKDVTDTTALITWSPCLFVCLRTGCELTYGIKDVPGDRTTIDLTEDENQYSIGNLKPDTEYEVSLICRRGDMSGAPAKETFTT
B3: 10D9 (designed binder)
chain: IEVKDVTDTTALITWSPPLFCCQKTGCELTYGIKDVPGDRTTIDLTEDENQYSIGNLKPDTEYEVSLICFKLTGFLYSKETFTT
notes: Lower case q in the BC loop is a TAG codon read as glutamine in the suppressor strain
B4: 6F11 (designed binder)
chain: IEVKDVTDTTALITWSPSVARMLETGCELTYGIKDVPGDRTTIDLTEDENQYSIGNLKPDTEYEVSLICITLCGRGVSKETFTT
B5: 8B3 (designed binder)
chain: IEVKDVTDTTALITWSPPEYAFYYTGCELTYGIKDVPGDRTTIDLTEDENQYSIGNLKPDTEYEVSLICVKNCGLFSNPAKETFTT
B6: 2H6 (designed binder)
chain: IEVKDVTDTTALITWATPSVFDSHIEGCELTYGIKDVPGDRTTIDLTEDENQYSIGNLKPDTEYEVSLICWKHHGDAWSKETFTT
B7: 7G11 (designed binder)
chain: IEVKDVTDTTALITWAKPSIVNGFISGCELTYGIKDVPGDRTTIDLTEDENQYSIGNLKPDTEYEVSLICDKCFGAMKSKETFTT
B8: 6C7 (designed binder)
chain: IEVKDVTDTTALITWAKPMSCSGYIQGCELTYGIKDVPGDRTTIDLTEDENQYSIGNLKPDTEYEVSLICAKLTGWLCSKETFTT
notes: Lower case q is a TAG codon read as glutamine
B9: 1E03 (designed binder)
chain: IEVKDVTDTTALITWAAPFFGSSYISGCELTYGIKDVPGDRTTIDLHYYVTRYSIGNLKPDTEYEVSLICVNLSGHMPSKETFTT
notes: also called 1E3
B10: 2B04 (designed binder)
chain: IEVKDVTDTTALITWAPPMLTDSEINGCELTYGIKDVPGDRTTIDLTSSYWSYSIGNLKPDTEYEVSLICSTLRRNAISKETFTT
notes: also called 2B4
B11: 1C12 (designed binder)
chain: IEVKDVTDTTALITWAKPEKWDGSIYGCELTYGIKDVPGDRTTIDLNSRHTAYSIGNLKPDTEYEVSLICFTPYGAKSNPAKETFTT
notes: also called monomeric 1C12
B12: 1A03 (designed binder)
chain: IEVKDVTDTTALITWAPPPFSNSCIIGCELTYGIKDVPGDRTTIDLRPGRASYSIGNLKPDTEYEVSLICSTGTGLPSNPAKETFTT
B13: 1C10 (designed binder)
chain: IEVKDVTDTTALITWSPCCPYDRYTGCELTYGIKDVPGDRTTIDLQSSRSHYSIGNLKPDTEYEVSLICITTFGHVSNPAKETFTT
B14: 1B12 (designed binder)
chain: IEVKDVTDTTALITWAKPRQGGSNISGCELTYGIKDVPGDRTTIDLYHKGLHYSIGNLKPDTEYEVSLICPKMTGYTYSKETFTT
B15: 2G03 (designed binder)
chain: IEVKDVTDTTALITWSPGPLLRHTTGCELTYGIKDVPGDRTTIDLRPIPRAYSIGNLKPDTEYEVSLICRNRPQQSNPAKETFTT
B16: 2D3 (designed binder)
chain: IEVKDVTDTTALITWSPGGFQKITTGCELTYGIKDVPGDRTTIDLVNRRNHYSIGNLKPDTEYEVSLICLTYKARAISKETFTT
B17: 1C06 (designed binder)
chain: IEVKDVTDTTALITWSPRMYTWIQTGCELTYGIKDVPGDRTTIDLTHLSGSYSIGNLKPDTEYEVSLICLKLTRTHISKETFTT
B18: 2F08 (designed binder)
chain: IEVKDVTDTTALITWSHAGGIRIGCELTYGIKDVPGDRTTIDLHVWQVYYSIGNLKPDTEYEVSLICMTPYLLGNPAKETFTT
B19: 1B04 (designed binder)
chain: IEVKDVTDTTALITWSPSHGVESSTGCELTYGIKDVPGDRTTIDLHGLQRVYSIGNLKPDTEYEVSLICAKICGHLVSKETFTT
B20: 3B11 (designed binder)
chain: IEVKDVTDTTALITWSPCQLLALITGCELTYGIKDVPGDRTTIDLNSRHYHYSIGNLKPDTEYEVSLICYTSTGQRSNPAKETFTT
B21: 1D8 (designed binder)
chain: IEVKDVTDTTALITWSPCQMLSSLTGCELTYGIKDVPGDRTTIDLNIERPKYSIGNLKPDTEYEVSLICFTMTGYRSNPAKETFTT
B22: 2A12 (designed binder)
chain: IEVKDVTDTTALITWSPCCQEFTLTGCELTYGIKDVPGDRTTIDLHNHHHHYSIGNLKPDTEYEVSLICITDAGNKSNPAKETFTT
B23: 1E05 (designed binder)
chain: IEVKDVTDTTALITWSPCSPCQLVTGCELTYGIKDVPGDRTTIDLSCTRAKYSIGNLKPDTEYEVSLICINKLGDTSNPAKETFTT
B24: 2F02 (designed binder)
chain: IEVKDVTDTTALITWSPSRGGTSLTGCELTYGIKDVPGDRTTIDLDQVRATYSIGNLKPDTEYEVSLICHTNSGQPSNPAKETFTT
B25: 1H05 (designed binder)
chain: IEVKDVTDTTALITWSPGMFDQVRTGCELTYGIKDVPGDRTTIDLGKYWERYSIGNLKPDTEYEVSLICRNQYGQHQSKETFTT
B26: 2A11 (designed binder)
chain: IEVKDVTDTTALITWSPPFRAGHVTGCELTYGIKDVPGDRTTIDLVTARCQYSIGNLKPDTEYEVSLICTTGNGLRSNPAKETFTT
B27: 1G11 (designed binder)
chain: IEVKDVTDTTALITWSWAQANPGGCELTYGIKDVPGDRTTIDLWHSITFYSIGNLKPDTEYEVSLICKTKVQSSNPAKETFTT
B28: D1-Fc (Fc fusion)
chain: IEVKDVTDTTALITWSPGERIWMFTGCELTYGIKDVPGDRTTIDLTEDENQYSIGNLKPDTEYEVSLICPNYERISNPAKETFTTGA
notes: not shown: hinge and Fc region of human IgG1
B29: D1-Cκ/D1-IGHG1 (other)
light: IEVKDVTDTTALITWSPGERIWMFTGCELTYGIKDVPGDRTTIDLTEDENQYSIGNLKPDTEYEVSLICPNYERISNPAKETFTTGGGTPT
heavy: IEVKDVTDTTALITWSPGERIWMFTGCELTYGIKDVPGDRTTIDLTEDENQYSIGNLKPDTEYEVSLICPNYERISNPAKETFTTGGGTPT
notes: Control two chain tetravalent construct of D1; not shown: human C-kappa region (constant region of an antibody kappa light chain); heavy chain constant region of human IgG1 (IGHG1)
B30: SynBP01-Fc (Fc fusion)
chain: IEVKDVTDTTALITWSPPSVLVGYTIELTYGIKDVPGDRTTIDLTEDENQYSIGNLKPDTEYEVSLISVTEFGRRRSKETFTT
notes: Chimeric fusion made in 293EBNA cells from pOE-SynBP01; Called bivalent; also called SynBP01 scaffold fused to an Fc region; not shown: CH2 and CH3 domains of IgG1 Fc from the pOE-Fc vector
B31: SynBP01 (designed binder)
chain: AAIEVKDVTDTTALITWSPPSVLVGYTIELTYGIKDVPGDRTTIDLTEDENQYSIGNLKPDTEYEVSLISVTEFGRRRSKETFTTGGGTLEHHHHHH
notes: also called SYNAGIS® specific Tn3 scaffold
B32: 5E5 (designed binder)
chain: IEVKDVTDTTALITWSLAPGYRLGCELTYGIKDVPGDRTTIDLTEDENQYSIGNLKPDTEYEVSLICVKLCMRGNPAKETFTT
notes: also called TRAIL-R2 specific clone 5E5

target: T1, TRAIL-R2/Fc fusion protein (R & D Systems) (UniProt O14763 54-182, limits assumed); assay: TRAIL-R2 phage ELISA
T1 construct: not shown: Fc part of the bought fusion; captured with anti-human IgG Fc antibody
T1 sequence (O14763 54-182 limits assumed): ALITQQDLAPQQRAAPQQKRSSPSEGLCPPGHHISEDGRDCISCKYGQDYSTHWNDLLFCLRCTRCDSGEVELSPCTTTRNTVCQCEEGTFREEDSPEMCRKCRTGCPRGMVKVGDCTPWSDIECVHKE

Does B1 bind?
Result: binds

Does B2 bind?
Result: binds

Does B3 bind?
Result: binds

Does B4 bind?
Result: binds

Does B5 bind?
Result: binds

Does B6 bind?
Result: binds

Does B7 bind?
Result: binds

Does B8 bind?
Result: binds

target: T1, TRAIL-R2/Fc fusion protein (R & D …); assay: TRAIL-R2 phage ELISA; remark: another data set of the same source

Does B9 bind?
Result: binds

Does B10 bind?
Result: binds

Does B11 bind?
Result: binds

Does B12 bind?
Result: binds

Does B13 bind?
Result: binds

Does B14 bind?
Result: binds

Does B15 bind?
Result: binds

Does B16 bind?
Result: binds

Does B17 bind?
Result: binds

Does B18 bind?
Result: binds

Does B19 bind?
Result: binds

Does B20 bind?
Result: binds

Does B21 bind?
Result: binds

Does B22 bind?
Result: binds

Does B23 bind?
Result: binds

Does B24 bind?
Result: binds

Does B25 bind?
Result: binds

Does B26 bind?
Result: binds

Does B27 bind?
Result: binds

target: T1, TRAIL-R2/Fc fusion protein (R & D …); assay: Attana biosensor, TRAIL-R2 chip
Description: A qualitative comparison of binding by monomeric 1C12, 1C12-Fc and 1C12-Cκ/1C12-IGHG1 proteins was performed by injecting samples of each of these proteins over a TRAIL-R2 chip on an Attana biosensor instrument.

Does B28 bind?
Result: no binding

Does B29 bind?
Result: no binding

target: SYNAGIS®; assay: SPR (BIAcore 3000), SYNAGIS® immobilized, both injected at 1 µM
Sequence (VH, as listed by the source, chain 1 of 2): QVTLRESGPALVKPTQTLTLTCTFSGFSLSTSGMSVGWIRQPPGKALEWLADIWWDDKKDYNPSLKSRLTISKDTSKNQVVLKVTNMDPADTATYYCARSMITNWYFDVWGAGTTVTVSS
Sequence (VL, as listed by the source, chain 2 of 2): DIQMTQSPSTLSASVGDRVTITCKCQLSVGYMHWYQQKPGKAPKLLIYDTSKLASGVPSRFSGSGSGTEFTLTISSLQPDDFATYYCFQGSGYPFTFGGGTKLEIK

B30 was tested. Which “fold increase in total response units compared to SynBP01” value did it give?
The value was roughly 6 fold.

target: SYNAGIS®; assay: SPR (BIAcore 3000), SYNAGIS® amine-coupled to the chip, equilibrium binding of SynBP01

B31 was tested. Which Kd did it give?
Its Kd is 16 µM.

target: T1, TRAIL-R2/Fc fusion protein (R & D …); assay: SPR (BIAcore), TRAIL-R2/Fc captured on goat anti-human-Fc IgG, 5E5 injected; from kon and koff
Description: Goat anti-human-Fc IgG was immobilized at a density of ˜7700 RUs onto a flow cell of a CM5 Biacore sensor chip surfaces using a standard amino coupling protocol (BIAcore, Inc.). Separately, a blank surface was also prepared on the same chip using the identical coupling protocol, minus the protein. This blank surface was used as a reference cell throughout the experiment, and served to correct for both non-specific binding and certain housekeeping artifacts.
After baseline stabilization, solutions of the Tn3 clone 5E5 (Table 7) were injected over both the captured ligand and control surfaces. Between injections, the Fc-capture surface was regenerated with two 1 min. injections of 10 mM Gly, pH2.
Several buffer and control protein injections were also interspersed throughout the injection series. Later, these buffer injections were used, along with the reference cell data, to correct the raw data sets for injection artifacts and/or non-specific ‘binding’ through a technique commonly referred to as “double-referencing.” (Myszka, D. G. (1999) J. Mol. Recognit. 12, pp. 279-284). Sensorgram overlays of the fully corrected data were generated using the BIAevaluation 4.1 software (BIAcore, Inc, Uppsala, Sweden). The affinity of 5E5 for binding to TRAIL-R2 was calculated by measuring the kₒₙ and koff.values in the BIAevaluation software for the sensorgram shown in FIG. 13.

For B32, which Kd is on record?
The Kd was roughly 0.7 µM.
